Data from PMC9504841.

Assays:
[1] = molecular target: MPER_(664–690) peptide (HIV-1); test: ITC; Fab at 3 μM titrated with 12 injections of 40 μM peptide; VP-ITC, 25 °C; 10 mM sodium phosphate pH 7.5, 150 mM NaCl, 10% glycerol, 5 mM DPC; one-site binding model
[2] = molecular target: native HIV-1 Env (PVO, clone 4) on virions (HIV-1)

| Substance | Kd [1] [µM] | dH [1] [kcal/mol] | stoichiometry N [1] | pseudovirus neutralisation (cell-entry inhibition, TZM-bl cells; JRCSF and PVO.4 PsV): potency of the Fab against the parental Fab 10E8-WT [2] [fold] |
| --- | --- | --- | --- | --- |
| 10E8-WT Fab | 0.0324 | -6.73 | 1.12 | – |
| 10E8-2R Fab (LC S30R/N52R) | 0.0463 | -6.24 | 1.17 | – |
| 10E8-2RF Fab (LC S30R/N52R, HC S100cF) | 0.0413 | -2.3 | 1.16 | 50 |
